First the molecules themselves.
T1: recombinant human CTLA-4-Fc (R&D Systems, #7268-CT) (human, UniProt P16410 36-161)
T1 construct: Bought protein; also called rhCTLA-4-Fc; CTLA-4 antigen; not shown: Fc part of the bought fusion protein
T1 sequence: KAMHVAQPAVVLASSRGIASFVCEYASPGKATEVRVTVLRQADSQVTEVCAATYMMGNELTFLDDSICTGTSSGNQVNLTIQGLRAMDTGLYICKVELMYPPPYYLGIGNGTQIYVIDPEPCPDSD

T2: rhICOS-Fc (R&D, #169-CS-050) (human, UniProt Q9Y6W8 21-141)
T2 construct: Bought protein; also called recombinant human ICOS; not shown: Fc part of the bought fusion protein
T2 sequence: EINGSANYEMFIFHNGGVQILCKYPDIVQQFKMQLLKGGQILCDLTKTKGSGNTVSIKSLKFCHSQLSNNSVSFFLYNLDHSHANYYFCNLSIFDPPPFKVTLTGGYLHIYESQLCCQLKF

T3: rhBTLA-Fc (Sino Biological, #11896-H02H) (human, UniProt Q7Z6A9 31-157)
T3 construct: Bought protein; also called recombinant human BTLA; not shown: Fc part of the bought fusion protein
T3 sequence: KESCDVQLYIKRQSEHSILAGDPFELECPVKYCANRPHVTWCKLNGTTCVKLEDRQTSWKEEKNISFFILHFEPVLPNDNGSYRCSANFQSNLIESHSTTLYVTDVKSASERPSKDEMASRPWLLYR

T4: human FcγRIIB expressed on CHO cells (human, UniProt P31994 43-310)
T4 construct: whole, on cells; also called rCHO-huFcγRIIB+
T4 sequence (looked up): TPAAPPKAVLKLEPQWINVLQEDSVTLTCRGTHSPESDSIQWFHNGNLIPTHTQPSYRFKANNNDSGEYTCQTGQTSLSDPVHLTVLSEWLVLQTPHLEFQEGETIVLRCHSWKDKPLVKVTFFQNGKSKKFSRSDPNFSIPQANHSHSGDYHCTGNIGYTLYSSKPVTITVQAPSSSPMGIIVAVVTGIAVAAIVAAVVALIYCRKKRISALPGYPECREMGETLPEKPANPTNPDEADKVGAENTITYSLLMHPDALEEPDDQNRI

B1: AGEN1896 (antibody, V domains shown)
VH: EVQLLESGGGLVKPGGSLRLSCAASGFTFSSYSMNWVRQAPGKGLEWVSSISSSSSYIYYADSVKGRFTISRDNAKNSLYLQMNSLRAEDTAVYYCARVGLMGPFDIWGQGTMVTVSS
VL: EIVLTQSPATLSFSPGERATLSCRASQSVSSYLAWYQQKPGQAPRLLIYGASSRATGIPDRFSGSGSGTDFTFTISRLEPEDFAVYYCQQYGSSPFTFGPGTKVDIK
B2: AGEN1887 (antibody, V domains shown)
VH: B1 VH with K13Q, S33A, N35S, E46V
VL: B1 VL with A9G, F13L, S31R, A34G, S53T, F73L, S76T, F96W, P100Q, D105E
B3: AGEN1898 (antibody, V domains shown)
VH: B1 VH with K13Q, S33A, N35S, E46V, D106N
VL: B1 VL with F13L, R45S, G50A, A51T, G66V, F73L, S93T, F96W, P100Q, D105E
B4: AGEN1901 (antibody, V domains shown)
VH: B1 VH with L5V, K13Q, R19T
VL: B1 VL with F13L, S30G, S31T, Q38H, P40V, S53R, F73L, F96W, P100Q, D105E
B5: AGEN1897 (antibody, V domains shown)
VH: B1 VH with K13Q, S33A, N35S, E46V, D106N
VL: B1 VL with A9G, F13L, S31R, A34G, S53T, F73L, S76T, F96W, P100Q, D105E
B6: AGEN1890 (antibody, V domains shown)
VH: B1 VH with L5V, S78T
VL: B1 VL
B7: AGEN1892 (antibody, V domains shown)
VH: B1 VH with L5V, S78T
VL: B1 VL with F13L, S53N, D60A, F73L, R77S
B8: AGEN1893 (antibody, V domains shown)
VH: B1 VH
VL: B1 VL with F13L, S30G, S31T, Q38H, P40V, S53R, F73L, F96W, P100Q, D105E
B9: AGEN1886 (antibody, V domains shown)
VH: B1 VH with L5V
VL: B1 VL
B10: AGEN1900 (antibody, V domains shown)
VH: B1 VH with K13Q, S33A, N35S, E46V, D106N
VL: B1 VL with F13L, S53N, D60A, F73L, R77S
B11: AGEN1888 (antibody, V domains shown)
VH: B1 VH with K13Q, S33A, N35S, E46V
VL: B1 VL
B12: AGEN1895 (antibody, V domains shown)
VH: B1 VH
VL: B1 VL with F13L, R45S, G50A, A51T, G66V, F73L, S93T, F96W, P100Q, D105E
B13: AGEN1889 (antibody, V domains shown)
VH: B1 VH with L5V, S78T
VL: B1 VL with F13L, S30G, S31T, Q38H, P40V, S53R, F73L, F96W, P100Q, D105E
B14: AGEN1902 (antibody, V domains shown)
VH: B1 VH with L5V, K13Q, R19T
VL: B1 VL
B15: AGEN1891 (antibody, V domains shown)
VH: B1 VH with L5V, S78T
VL: B1 VL with F13V, G50A, S53T, G66A, F73L, F96W, P100Q, D105E
B16: AGEN1899 (antibody, V domains shown)
VH: B1 VH with K13Q, S33A, N35S, E46V, D106N
VL: B1 VL
B17: AGEN1885 (antibody, V domains shown)
VH: B1 VH with L5V
VL: B1 VL with F13L, R45S, G50A, A51T, G66V, F73L, S93T, F96W, P100Q, D105E
B18: AGEN2041w (antibody, human IgG2, kappa)
heavy: EVQLVESGGGLVKPGGSLRLSCAASGFTFSSYSMNWVRQAPGKGLEWVSSISSSSSYIYYADSVKGRFTISRDNAKNSLYLQMNSLRAEDTAVYYCARVGLMGPFDIWGQGTMVTVSSASTKGPSVFPLAPCSRSTSESTAALGCLVKDYFPEPVTVSWNSGALTSGVHTFPAVLQSSGLYSLSSVVTVPSSNFGTQTYTCNVDHKPSNTKVDKTVERKCCVECPPCPAPPVAGPSVFLFPPKPKDTLMISRTPEVTCVVVDVSHEDPEVQFNWYVDGVEVHNAKTKPREEQFNSTFRVVSVLTVVHQDWLNGKEYKCKVSNKGLPAPIEKTISKTKGQPREPQVYTLPPSREEMTKNQVSLTCLVKGFYPSDIAVEWESNGQPENNYKTTPPMLDSDGSFFLYSKLTVDKSRWQQGNVFSCSVMHEALHNHYTQKSLSLSPG
light: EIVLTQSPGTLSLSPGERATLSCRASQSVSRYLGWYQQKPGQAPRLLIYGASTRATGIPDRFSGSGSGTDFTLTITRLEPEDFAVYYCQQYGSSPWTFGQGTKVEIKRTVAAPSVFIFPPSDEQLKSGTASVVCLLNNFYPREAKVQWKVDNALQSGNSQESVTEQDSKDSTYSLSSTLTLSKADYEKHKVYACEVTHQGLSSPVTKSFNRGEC
notes: Human IgG2 version of AGEN1884w

Positions count from the first letter of the chain named.

T8 sequence (Q15116 25-167 limits assumed): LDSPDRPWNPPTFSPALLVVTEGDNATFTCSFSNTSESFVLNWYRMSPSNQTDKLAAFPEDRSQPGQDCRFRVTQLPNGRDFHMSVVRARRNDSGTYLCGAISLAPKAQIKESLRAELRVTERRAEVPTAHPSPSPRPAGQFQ
T6 sequence (P10747 19-152 limits assumed): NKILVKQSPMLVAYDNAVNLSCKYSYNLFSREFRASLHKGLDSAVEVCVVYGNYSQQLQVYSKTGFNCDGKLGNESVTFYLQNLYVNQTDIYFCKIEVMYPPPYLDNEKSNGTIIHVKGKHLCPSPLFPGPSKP
T7 sequence (P16410 other isoform, or with tags, fused parts or gaps C02H C02H limits assumed): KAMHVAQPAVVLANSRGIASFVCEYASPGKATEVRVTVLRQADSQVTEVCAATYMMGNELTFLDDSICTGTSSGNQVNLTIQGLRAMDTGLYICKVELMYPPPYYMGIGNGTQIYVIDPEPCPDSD

The first experiment has as its target T1, recombinant human CTLA-4-Fc (R&D …). Nature of the experiment: surface plasmon resonance, antibody captured on CM5 chip, rhCTLA-4-Fc in solution. An excerpt:
To detect nonspecific interactions of the CTLA-4 antigen, antibody capture was only performed in flow cell 2, whereas in flow cell 1 only the capturing antibody was immobilized. After capture of the anti-CTLA-4 antibodies, the CTLA-4 antigens were run through both flow cells in different amounts. Specifically, recombinant human CTLA-4-Fc (R&D Systems, #7268-CT), recombinant human CTLA-4 (Sino Biological, #11159-H08H), recombinant cynomolgus CTLA-4-Fc (Sino Biological, #90213-C02H), and recombinant cynomolgus CTLA-4 (Sino Biological, #90213-C08H) were run at 100 nM, 25 nM, and 6.25 nM; and recombinant mouse CTLA-4-Fc (R&D, # 434-CT), recombinant rat CTLA-4-Fc (Sino Biological, #81069-RO2H), and recombinant rat CTLA-4 (Sino Biological, #81069-R08H) were run at 400 nM, 100 nM, and 25 nM. A blank curve (running buffer only) was also included in each run. Association was run for 90 seconds and dissociation for 600 seconds with a flow rate of 10 μl/min. After each run a regeneration step was performed with 10 mM Glycine pH 2.0 (GE Healthcare, BR-1003-55) for 60 seconds with 30 μl/min. Binding curves were evaluated using BIAcore® T200 evaluation software version 2.0.1 applying a Langmuir 1:1 model with global fit of Rmax. From these values the affinities (KD) of AGEN1884 and the reference anti-CTLA-4 antibody for various antigens were calculated and shown in FIG. 1A. The recombinant monomeric cynomolgus CTLA-4, mouse CTLA-4-Fc, and monomeric rat CTLA-4 used in this study failed quality control assessment. […] The surface plasmon resonance analysis was later repeated twice using recombinant mouse CTLA-4-Fc (Sino Biological, #81069-R02H) that passed a quality control assessment at 360 nM, 120 nM, 40 nM, and 13.3 nM for AGEN1884w.
The affinity of the 19 anti-CTLA-4 antibodies described above was analyzed by surface plasmon resonance in an assay similar to the one described in Section 6.1.1. The CTLA-4 antigen tested was recombinant human CTLA-4-Fc (R&D Systems, #7268-CT). The anti-CTLA-4 antibodies (6 μg/ml in running buffer) were captured to the chip surface of a CMS sensor chip.
Take B1: the binding result is given as “binds”.
As to B2, the binding result was “binds”.
As for B3, the binding result is on record as “binds”.
In the case of B4, the binding result was “binds”.
For B5, the binding result was “binds”.
With B6, the binding result is listed as “binds”.
The same measure, in the same setting: next, B7: “binds”; B8: “binds”.
Same read-out and setting: next, B9: “binds”.
For the molecule B10, the binding result is reported as “binds”.
Turning to B11, the binding result is listed as “binds”.
The same measure, in the same setting: next, B12: “binds”; B13: “binds”.
Take B14: the binding result was “binds”.
Take B15: the binding result is listed as “binds”.
Still for that read-out and setting: next, B16: “binds”; B17: “binds”.

The target of another experiment is T5, human FcγRIIIA^V158 expressed on cells (human, UniProt P08637 17-254).
T5 construct: whole, on cells; also called rCHO-huFcγRIIIA+
T5 sequence (P08637 17-254 F176V limits assumed): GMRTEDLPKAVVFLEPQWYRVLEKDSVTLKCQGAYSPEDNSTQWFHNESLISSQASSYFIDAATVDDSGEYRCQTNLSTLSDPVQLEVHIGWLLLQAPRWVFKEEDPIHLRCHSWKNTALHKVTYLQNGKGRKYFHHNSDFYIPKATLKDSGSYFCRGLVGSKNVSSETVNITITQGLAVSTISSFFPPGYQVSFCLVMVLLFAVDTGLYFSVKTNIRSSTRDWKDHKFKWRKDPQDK
Briefly: flow cytometry on CHO cells expressing human FcγRIIIA^V158. The procedure:
(§1) The binding of anti-CTLA-4 antibodies to human FcγRIIA, FcγRIIB, and FcγRIIIA expressed on the surface of CHO cells was measured by flow cytometry. Briefly, CHO cells were transfected with cDNA encoding for human FcγRIIA^H131, FcγRIIB, or FcγRIIIA^V158, generating the following CHO cell lines: rCHO-huFcγRIIA⁺, rCHO-huFcγRIIB⁺, and rCHO-huFcγRIIIA⁺. Binding of a dose titration of antibodies ranging from 0.0056-1000 μg/ml was performed and the primary antibodies were detected with an anti-human F(ab′) secondary antibody conjugated with Phycoerythrin (PE) (Jackson Immune Research). The samples were tested by flow cytometry and the PE mean fluorescence intensity (MFI) values were analyzed and used to generate binding curves. The antibodies tested were AGEN1884w, AGEN2041w, a reference anti-CTLA-4 IgG₁ antibody, and an IgG₁ isotype control antibody. AGEN1884w produced in two different growth media was used in this study: the growth media CD FortiCHO™ from Life Technologies Inc./Thermo (AGEN1884w-FortiCHO) and the growth media PowerCHO™ 2 from Lonza (AGEN1884w-PowerCHO). The reference anti-CTLA-4 IgG₁ antibody contains a different IgG₁ allotype from the one in AGEN1884w. The IgG₁ isotype control antibody was only tested at 1000 μg/ml.
In general terms: In flow cytometry, cells or beads pass a laser one at a time.
In the case of B18, the binding result is listed as “binds”.

For another experiment, the target named is T2, rhICOS-Fc (R&D, #169-CS-050). Briefly: suspension array (Luminex) selectivity assay as in Section 6.1.3.
With B18, the binding result is listed as “no binding”.

Another experiment has as its target T6, rhCD28-Fc (R&D, #342-CD-200) (human, UniProt P10747 19-152).
T6 construct: Bought protein; also called recombinant human CD28; not shown: Fc part of the bought fusion protein
The experiment is described as above.
For B18, the binding result is reported as “no binding”.

The next experiment addresses T7, recombinant cynomolgus CTLA-4-Fc (Sino Biological, #90213-C02H) (cynomolgus, UniProt P16410 36-161 (human entry)).
T7 construct: Bought protein; also called recombinant cynomolgus (rc) CTLA-4; not shown: Fc part of the bought fusion protein
The experiment is described as above.
Consider B18, for which the binding result was “binds”.

A further experiment addresses T8, rhPD-1-Fc (R&D Systems, #1086-PD) (human, UniProt Q15116 25-167).
T8 construct: Bought protein; also called recombinant human PD-1; not shown: Fc part of the bought fusion protein
The experiment is described as above.
With B18, the binding result was “no binding”.

The target in another experiment is T3, rhBTLA-Fc (Sino Biological, #11896-H02H). The description is as above.
On to B18, for which the binding result was “no binding”.

The target of another experiment is T4, human FcγRIIB expressed on CHO cells. Briefly: flow cytometry on CHO cells expressing human FcγRIIB. The procedure:
as §1
With B18, the binding result was “binds”.
